Results on 1 molecule are retold here after article PMC4227790.

This test concerns the target FLAG-tagged TRAP150 (thyroid hormone receptor-associated protein of 150 kDa), full length (UniProt Q9Y2W1). As to the kind of experiment: co-IP; anti-FLAG immunoprecipitation of FLAG-TRAP150 (full length or truncated) from lysate of transfected HEK293 cells (hypotonic buffer with 0.5% Triton X-100, brought to 150 mM NaCl); precipitates mock- or RNase A-treated; immunoblot of endogenous partners.
UniProt Q9Y2W1, sequence (Q9Y2W1 2-955): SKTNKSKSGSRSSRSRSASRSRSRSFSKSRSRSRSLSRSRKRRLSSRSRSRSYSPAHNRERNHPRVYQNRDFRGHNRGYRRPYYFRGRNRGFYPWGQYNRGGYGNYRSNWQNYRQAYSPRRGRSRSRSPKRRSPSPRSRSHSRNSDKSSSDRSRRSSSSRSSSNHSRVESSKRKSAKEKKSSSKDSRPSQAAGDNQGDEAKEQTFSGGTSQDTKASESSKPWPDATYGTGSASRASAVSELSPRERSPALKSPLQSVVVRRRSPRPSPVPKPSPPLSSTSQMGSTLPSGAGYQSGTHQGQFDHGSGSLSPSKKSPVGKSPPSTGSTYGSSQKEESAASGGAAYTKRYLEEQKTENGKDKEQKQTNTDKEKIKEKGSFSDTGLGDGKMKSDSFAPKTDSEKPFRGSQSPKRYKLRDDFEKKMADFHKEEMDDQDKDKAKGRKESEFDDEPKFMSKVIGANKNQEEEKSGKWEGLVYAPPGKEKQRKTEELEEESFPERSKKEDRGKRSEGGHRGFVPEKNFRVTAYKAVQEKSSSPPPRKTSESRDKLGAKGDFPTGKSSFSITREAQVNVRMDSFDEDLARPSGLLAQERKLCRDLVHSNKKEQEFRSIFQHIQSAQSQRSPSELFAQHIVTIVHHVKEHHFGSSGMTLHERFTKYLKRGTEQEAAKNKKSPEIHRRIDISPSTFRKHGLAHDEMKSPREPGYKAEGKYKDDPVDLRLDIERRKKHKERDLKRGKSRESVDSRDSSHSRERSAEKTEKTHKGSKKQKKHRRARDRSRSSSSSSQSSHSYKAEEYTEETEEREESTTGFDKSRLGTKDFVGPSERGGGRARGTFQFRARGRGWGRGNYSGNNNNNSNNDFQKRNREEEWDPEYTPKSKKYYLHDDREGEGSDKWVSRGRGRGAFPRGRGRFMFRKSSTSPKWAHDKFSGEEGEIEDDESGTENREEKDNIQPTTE

B1: CPSF160 (natural protein)
chain: MYAVYKQAHPPTGLEFSMYCNFFNNSERNLVVAGTSQLYVYRLNRDAEALTKNDRSTEGKAHREKLELAASFSFFGNVMSMASVQLAGAKRDALLLSFKDAKLSVVEYDPGTHDLKTLSLHYFEEPELRDGFVQNVHTPRVRVDPDGRCAAMLVYGTRLVVLPFRRESLAEEHEGLVGEGQRSSFLPSYIIDVRALDEKLLNIIDLQFLHGYYEPTLLILFEPNQTWPGRVAVRQDTCSIVAISLNITQKVHPVIWSLTSLPFDCTQALAVPKPIGGVVVFAVNSLLYLNQSVPPYGVALNSLTTGTTAFPLRTQEGVRITLDCAQATFISYDKMVISLKGGEIYVLTLITDGMRSVRAFHFDKAAASVLTTSMVTMEPGYLFLGSRLGNSLLLKYTEKLQEPPASAVREAADKEEPPSKKKRVDATAGWSAAGKSVPQDEVDEIEVYGSEAQSGTQLATYSFEVCDSILNIGPCANAAVGEPAFLSEEFQNSPEPDLEIVVCSGHGKNGALSVLQKSIRPQVVTTFELPGCYDMWTVIAPVRKEEEDNPKGEGTEQEPSTTPEADDDGRRHGFLILSREDSTMILQTGQEIMELDTSGFATQGPTVFAGNIGDNRYIVQVSPLGIRLLEGVNQLHFIPVDLGAPIVQCAVADPYVVIMSAEGHVTMFLLKSDSYGGRHHRLALHKPPLHHQSKVITLCLYRDLSGMFTTESRLGGARDELGGRSGPEAEGLGSETSPTVDDEEEMLYGDSGSLFSPSKEEARRSSQPPADRDPAPFRAEPTHWCLLVRENGTMEIYQLPDWRLVFLVKNFPVGQRVLVDSSFGQPTTQGEARREEATRQGELPLVKEVLLVALGSRQSRPYLLVHVDQELLIYEAFPHDSQLGQGNLKVRFKKVPHNINFREKKPKPSKKKAEGGGAEEGAGARGRVARFRYFEDIYGYSGVFICGPSPHWLLVTGRGALRLHPMAIDGPVDSFAPFHNVNCPRGFLYFNRQGELRISVLPAYLSYDAPWPVRKIPLRCTAHYVAYHVESKVYAVATSTNTPCARIPRMTGEEKEFETIERDERYIHPQQEAFSIQLISPVSWEAIPNARIELQEWEHVTCMKTVSLRSEETVSGLKGYVAAGTCLMQGEEVTCRGRILIMDVIEVVPEPGQPLTKNKFKVLYEKEQKGPVTALCHCNGHLVSAIGQKIFLWSLRASELTGMAFIDTQLYIHQMISVKNFILAADVMKSISLLRYQEESKTLSLVSRDAKPLEVYSVDFMVDNAQLGFLVSDRDRNLMVYMYLPEAKESFGGMRLLRRADFHVGAHVNTFWRTPCRGATEGLSKKSVVWENKHITWFATLDGGIGLLLPMQEKTYRRLLMLQNALTTMLPHHAGLNPRAFRMLHVDRRTLQNAVRNVLDGELLNRYLYLSTMERSELAKKIGTTPDIILDDLLETDRVTAHF
B1 gave a percent of CPSF160 co-precipitated of 10 to 20%.
